Reference: article doi:10.1101/2021.10.11.463969

Biological target: Measles virus matrix protein (MeV-M) fused to a twin StrepII tag (Measles virus) (UniProt Q9W850)
Test: SEC-MALS

Measles virus matrix protein (MeV-M) fused to a twin StrepII tag (from UniProt Q9W850 1-335) (natural protein)
stoichiometry N: 2
